The target in this data set is tetranectin-apolipoprotein A-I fusion polypeptide precursor polypeptide.

B1: IgA-protease protein from Neisseria gonorrhoeae (protein)
chain: ALVRDDVDYQIFRDFAENKGKFFVGATDLSVKNKRGQNIGNALSNVPMIDFSVADVNKRIATVVDPQYAVSVKHAKAEVHTFYYGQYNGHNDVADKENEYRVVEQNNYEPHKAWGASNLGRLEDYNMARFNKFVTEVAPIAPTDAGGGLDTYKDKNRFSSFVRIGAGRQLVYEKGVYHQEGNEKGYDLRDLSQAYRYAIAGTPYKDINIDQTMNTEGLIGFGNHNKQYSAEELKQALSQDALTNYGVLGDSGSPLFAFDKQKNQWVFLGTYDYWAGYGKKSWQEWNIYKKEFADKIKQHDNAGTVKGNGEHHWKTTGTNSHIGSTAVRLANNEGDANNGQNVTFEDNGTLVLNQNINQGAGGLFFKGDYTVKGANNDITWLGAGIDVADGKKVVWQVKNPNGDRLAKIGKGTLEINGTGVNQGQLKVGDGTVILNQKADADKKVQAFSQVGIVSGRGTLVLNSSNQINPDNLYFGFRGGRLDANGNDLTFEHIRNVDEGARIVNHNTDHASTITLTGKSLITNPNSLSVHSIQNDYDEDDYSYYYRPRRPIPQGKDLYYKNYRYYALKSGGRLNAPMPENGVAENNDWIFMGYTQEEARKNAMNHKNNRRIGDFGGFFDEENGKGHNGALNLNFNGKSAQKRFLLTGGANLNGKISVTQGNVLLSGRPTPHARDFVNKSSARKDAHFSKNNEVVFEDDWINRTFKAAEIAVNQSASFSSGRNVSDITANITATDNAKVNLGYKNGDEVCVRSDYTGYVTCNTGNLSDKALNSFDATRINGNVNLNQNAALVLGKAALWGKIQGQGNSRVSLNQHSKWHLTGDSQVHNLSLADSHIHLNNASDAQSANKYHTIKINHLSGNGHFHYLTDLAKNLGDKVLVKESASGHYQLHVQNKTGEPNQEGLDLFDASSVQDRSRLFVSLANHYVDLGALRYTIKTENGITRLYNPYAGNGRPVKPAP
B1: the Cleavage activity result is on record as “Cleavage activity was in the expected range”.

Values taken from patent US20150376674.
